B1: humanized Y1238 hz25 (hz-HC5 / hz-LC5), IgG1.3f (antibody, V domains shown)
VH: QVQLVQSGAEVKKPGASVKVSCKASGYAFTNYLIEWVRQRPGQGLEWMGVINPGSGGTNYNEKFKGRVTMTADKSISTAYMELSRLRSDDTAVYYCARSQLGRRFDYWGQGTLVTVSS
VL: DIQMTQSPSSLSASVGDRVTITCKASQDVRTGVAWYQQKPGQAPKLLIYSASYRNTGVPSRFSGSRSGTDFTFTISSLQPEDIAVYYCQQHYSPPYTFGGGTKVEIK
notes: IgG1.3f heavy constant, common CL; expression supernatant; also called Sup 25
B2: humanized Y1238 hz9 (hz-HC2 / hz-LC4), IgG1.3f (antibody, V domains shown)
VH: QVQLVQSGAEVKKPGASVKVSCKASGYAFTNYLIEWVRQAPGQGLEWMGVINPGSGGTNYNEKFKGRVTMTADTSISTAYMELSRLRSDDTAVYYCARSQLGRRFDYWGQGTLVTVSS
VL: DIQMTQSPSSLSASVGDRVTITCKASQDVRTGVAWYQQKPGQSPKLLIYSASYRNTGVPSRFSGSRSGTDFTFTISSLQAEDIAVYYCQQHYSPPYTFGGGTKVEIK
notes: IgG1.3f heavy constant, common CL; expression supernatant; also called Sup 9
B3: humanized Y1238 hz8 (hz-HC2 / hz-LC3), IgG1.3f (antibody, V domains shown)
VH: QVQLVQSGAEVKKPGASVKVSCKASGYAFTNYLIEWVRQAPGQGLEWMGVINPGSGGTNYNEKFKGRVTMTADTSISTAYMELSRLRSDDTAVYYCARSQLGRRFDYWGQGTLVTVSS
VL: DIQMTQSPSSLSASVGDRVTITCKASQDVRTGVAWYQQKPGQSPKLLIYSASYRNTGVPSRFSGSRSGTDFTFTISSLQPEDIAVYYCQQHYSPPYTFGGGTKVEIK
notes: IgG1.3f heavy constant, common CL; expression supernatant; also called Sup 8
B4: humanized Y1238 hz21 (hz-HC5 / hz-LC1), IgG1.3f (antibody, V domains shown)
VH: QVQLVQSGAEVKKPGASVKVSCKASGYAFTNYLIEWVRQRPGQGLEWMGVINPGSGGTNYNEKFKGRVTMTADKSISTAYMELSRLRSDDTAVYYCARSQLGRRFDYWGQGTLVTVSS
VL: DIQMTQSPSSLSASVGDRVTITCKASQDVRTGVAWYQQKPGKAPKLLIYSASYRNTGVPSRFSGSGSGTDFTFTISSLQPEDIATYYCQQHYSPPYTFGGGTKVEIK
notes: IgG1.3f heavy constant, common CL; expression supernatant; also called Sup 21
B5: humanized Y1238 hz2 (hz-HC1 / hz-LC2), IgG1.3f (antibody, V domains shown)
VH: QVQLVQSGAEVKKPGASVKVSCKASGYAFTNYLIEWVRQAPGQGLEWMGVINPGSGGTNYNEKFKGRVTMTRDTSISTAYMELSRLRSDDTAVYYCARSQLGRRFDYWGQGTLVTVSS
VL: DIQMTQSPSSLSASVGDRVTITCKASQDVRTGVAWYQQKPGKAPKLLIYSASYRNTGVPSRFSGSRSGTDFTFTISSLQPEDIATYYCQQHYSPPYTFGGGTKVEIK
notes: IgG1.3f heavy constant, common CL; expression supernatant; also called Sup 2
B6: humanized Y1238 hz3 (hz-HC1 / hz-LC3), IgG1.3f (antibody, V domains shown)
VH: QVQLVQSGAEVKKPGASVKVSCKASGYAFTNYLIEWVRQAPGQGLEWMGVINPGSGGTNYNEKFKGRVTMTRDTSISTAYMELSRLRSDDTAVYYCARSQLGRRFDYWGQGTLVTVSS
VL: DIQMTQSPSSLSASVGDRVTITCKASQDVRTGVAWYQQKPGQSPKLLIYSASYRNTGVPSRFSGSRSGTDFTFTISSLQPEDIAVYYCQQHYSPPYTFGGGTKVEIK
notes: IgG1.3f heavy constant, common CL; expression supernatant; also called Sup 3
B7: humanized Y1238 hz19 (hz-HC4 / hz-LC4), IgG1.3f (antibody, V domains shown)
VH: QVQLVQSGAEVKKPGASVKVSCKASGYAFTNYLIEWVRQAPGQGLEWMGVINPGSGGTNYNEKFKGRVTMTADKSISTAYMELSRLRSDDTAVYYCARSQLGRRFDYWGQGTLVTVSS
VL: DIQMTQSPSSLSASVGDRVTITCKASQDVRTGVAWYQQKPGQSPKLLIYSASYRNTGVPSRFSGSRSGTDFTFTISSLQAEDIAVYYCQQHYSPPYTFGGGTKVEIK
notes: IgG1.3f heavy constant, common CL; expression supernatant; also called Sup 19
B8: humanized Y1238 hz18 (hz-HC4 / hz-LC3), IgG1.3f (antibody, V domains shown)
VH: QVQLVQSGAEVKKPGASVKVSCKASGYAFTNYLIEWVRQAPGQGLEWMGVINPGSGGTNYNEKFKGRVTMTADKSISTAYMELSRLRSDDTAVYYCARSQLGRRFDYWGQGTLVTVSS
VL: DIQMTQSPSSLSASVGDRVTITCKASQDVRTGVAWYQQKPGQSPKLLIYSASYRNTGVPSRFSGSRSGTDFTFTISSLQPEDIAVYYCQQHYSPPYTFGGGTKVEIK
notes: IgG1.3f heavy constant, common CL; expression supernatant; also called Sup 18
B9: humanized Y1238 hz17 (hz-HC4 / hz-LC2), IgG1.3f (antibody, V domains shown)
VH: QVQLVQSGAEVKKPGASVKVSCKASGYAFTNYLIEWVRQAPGQGLEWMGVINPGSGGTNYNEKFKGRVTMTADKSISTAYMELSRLRSDDTAVYYCARSQLGRRFDYWGQGTLVTVSS
VL: DIQMTQSPSSLSASVGDRVTITCKASQDVRTGVAWYQQKPGKAPKLLIYSASYRNTGVPSRFSGSRSGTDFTFTISSLQPEDIATYYCQQHYSPPYTFGGGTKVEIK
notes: IgG1.3f heavy constant, common CL; expression supernatant; also called Sup 17
B10: humanized Y1238 hz4 (hz-HC1 / hz-LC4), IgG1.3f (antibody, V domains shown)
VH: QVQLVQSGAEVKKPGASVKVSCKASGYAFTNYLIEWVRQAPGQGLEWMGVINPGSGGTNYNEKFKGRVTMTRDTSISTAYMELSRLRSDDTAVYYCARSQLGRRFDYWGQGTLVTVSS
VL: DIQMTQSPSSLSASVGDRVTITCKASQDVRTGVAWYQQKPGQSPKLLIYSASYRNTGVPSRFSGSRSGTDFTFTISSLQAEDIAVYYCQQHYSPPYTFGGGTKVEIK
notes: IgG1.3f heavy constant, common CL; expression supernatant; also called Sup 4
B11: humanized Y1238 hz16 (hz-HC4 / hz-LC1), IgG1.3f (antibody, V domains shown)
VH: QVQLVQSGAEVKKPGASVKVSCKASGYAFTNYLIEWVRQAPGQGLEWMGVINPGSGGTNYNEKFKGRVTMTADKSISTAYMELSRLRSDDTAVYYCARSQLGRRFDYWGQGTLVTVSS
VL: DIQMTQSPSSLSASVGDRVTITCKASQDVRTGVAWYQQKPGKAPKLLIYSASYRNTGVPSRFSGSGSGTDFTFTISSLQPEDIATYYCQQHYSPPYTFGGGTKVEIK
notes: IgG1.3f heavy constant, common CL; expression supernatant; also called Sup 16
B12: humanized Y1238 hz5 (hz-HC1 / hz-LC5), IgG1.3f (antibody, V domains shown)
VH: QVQLVQSGAEVKKPGASVKVSCKASGYAFTNYLIEWVRQAPGQGLEWMGVINPGSGGTNYNEKFKGRVTMTRDTSISTAYMELSRLRSDDTAVYYCARSQLGRRFDYWGQGTLVTVSS
VL: DIQMTQSPSSLSASVGDRVTITCKASQDVRTGVAWYQQKPGQAPKLLIYSASYRNTGVPSRFSGSRSGTDFTFTISSLQPEDIAVYYCQQHYSPPYTFGGGTKVEIK
notes: IgG1.3f heavy constant, common CL; expression supernatant; also called Sup 5
B13: humanized Y1238 hz6 (hz-HC2 / hz-LC1), IgG1.3f (antibody, V domains shown)
VH: QVQLVQSGAEVKKPGASVKVSCKASGYAFTNYLIEWVRQAPGQGLEWMGVINPGSGGTNYNEKFKGRVTMTADTSISTAYMELSRLRSDDTAVYYCARSQLGRRFDYWGQGTLVTVSS
VL: DIQMTQSPSSLSASVGDRVTITCKASQDVRTGVAWYQQKPGKAPKLLIYSASYRNTGVPSRFSGSGSGTDFTFTISSLQPEDIATYYCQQHYSPPYTFGGGTKVEIK
notes: IgG1.3f heavy constant, common CL; expression supernatant; also called Sup 6
B14: humanized Y1238 hz20 (hz-HC4 / hz-LC5), IgG1.3f (antibody, V domains shown)
VH: QVQLVQSGAEVKKPGASVKVSCKASGYAFTNYLIEWVRQAPGQGLEWMGVINPGSGGTNYNEKFKGRVTMTADKSISTAYMELSRLRSDDTAVYYCARSQLGRRFDYWGQGTLVTVSS
VL: DIQMTQSPSSLSASVGDRVTITCKASQDVRTGVAWYQQKPGQAPKLLIYSASYRNTGVPSRFSGSRSGTDFTFTISSLQPEDIAVYYCQQHYSPPYTFGGGTKVEIK
notes: IgG1.3f heavy constant, common CL; expression supernatant; also called Sup 20
B15: humanized Y1238 hz10 (hz-HC2 / hz-LC5), IgG1.3f (antibody, V domains shown)
VH: QVQLVQSGAEVKKPGASVKVSCKASGYAFTNYLIEWVRQAPGQGLEWMGVINPGSGGTNYNEKFKGRVTMTADTSISTAYMELSRLRSDDTAVYYCARSQLGRRFDYWGQGTLVTVSS
VL: DIQMTQSPSSLSASVGDRVTITCKASQDVRTGVAWYQQKPGQAPKLLIYSASYRNTGVPSRFSGSRSGTDFTFTISSLQPEDIAVYYCQQHYSPPYTFGGGTKVEIK
notes: IgG1.3f heavy constant, common CL; expression supernatant; also called Sup 10
B16: humanized Y1238 hz7 (hz-HC2 / hz-LC2), IgG1.3f (antibody, V domains shown)
VH: QVQLVQSGAEVKKPGASVKVSCKASGYAFTNYLIEWVRQAPGQGLEWMGVINPGSGGTNYNEKFKGRVTMTADTSISTAYMELSRLRSDDTAVYYCARSQLGRRFDYWGQGTLVTVSS
VL: DIQMTQSPSSLSASVGDRVTITCKASQDVRTGVAWYQQKPGKAPKLLIYSASYRNTGVPSRFSGSRSGTDFTFTISSLQPEDIATYYCQQHYSPPYTFGGGTKVEIK
notes: IgG1.3f heavy constant, common CL; expression supernatant; also called Sup 7
B17: humanized Y1238 hz22 (hz-HC5 / hz-LC2), IgG1.3f (antibody, V domains shown)
VH: QVQLVQSGAEVKKPGASVKVSCKASGYAFTNYLIEWVRQRPGQGLEWMGVINPGSGGTNYNEKFKGRVTMTADKSISTAYMELSRLRSDDTAVYYCARSQLGRRFDYWGQGTLVTVSS
VL: DIQMTQSPSSLSASVGDRVTITCKASQDVRTGVAWYQQKPGKAPKLLIYSASYRNTGVPSRFSGSRSGTDFTFTISSLQPEDIATYYCQQHYSPPYTFGGGTKVEIK
notes: IgG1.3f heavy constant, common CL; expression supernatant; also called Sup 22

Target: T1, human-CD40 monomer (human, UniProt P25942 21-193, limits assumed)
T1 construct: also called hCD40-monomer; human-CD40-monomer protein
T1 sequence (P25942 21-193 limits assumed): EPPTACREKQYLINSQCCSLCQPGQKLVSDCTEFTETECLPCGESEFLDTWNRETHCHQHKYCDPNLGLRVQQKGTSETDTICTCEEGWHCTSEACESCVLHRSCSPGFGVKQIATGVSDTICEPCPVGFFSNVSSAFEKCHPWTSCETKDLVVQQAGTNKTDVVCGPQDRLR
Assay: SPR 2 pt screen, Ab on protein A
Experimental: The VH sequences were formatted in the context of an IgG1.3f isotype. The Vκ sequences were formatted as a full light chain with a common CL sequence. All 55 combinations of these humanized HC and LC constructs, as well as the chimeric Y1238 molecule were expressed as 3 ml supernatants for binding analysis by SPR. Each of the 56 supernatants, as well as a purified Y1238-chimeric IgG1 antibody, was captured on a protein A sensor chip and tested for binding to two concentrations (i.e., 200 nM and 1000 nM) of hCD40-monomer using BIAcore™ SPR in a screening assay. All antibodies, except for those containing hz-HC3, captured at high levels (>300 RU) using a 100-fold dilution of the expression supernatant, indicating a high antibody titer in the supernatant except for the hz-HC3 samples. The kinetic data for the two concentrations of hCD40-monomer were fit to a 1:1 Langmuir model, to yield estimates of the kinetic and affinity values for these interactions, and for comparison of the different molecules. […] Also, for a given heavy chain, the antibodies with light chains hz-LC1 or hz-LC2 had higher CD40 affinity than those with hz-LC3, hz-LC4 or hz-LC5.

Binder | Kd [nM] | koff [s⁻¹] | kon [M⁻¹ s⁻¹]
B1 | 6.6 | 0.00028 | 43000
B2 | 6.6 | 0.00031 | 47000
B3 | 6.2 | 0.00029 | 46000
B4 | 3.5 | 0.00015 | 42000
B5 | 5.2 | 0.00023 | 45000
B6 | 10 | 0.00048 | 48000
B7 | 6.3 | 0.00028 | 45000
B8 | 7.6 | 0.00035 | 46000
B9 | 4.4 | 0.00018 | 42000
B10 | 8.9 | 0.00042 | 48000
B11 | 2.7 | 0.00012 | 45000
B12 | 11 | 0.0005 | 47000
B13 | 2.7 | 0.00012 | 45000
B14 | 8.3 | 0.00037 | 45000
B15 | 5.9 | 0.00027 | 45000
B16 | 2.7 | 0.00011 | 43000
B17 | 2.9 | 0.00012 | 40000

Source: patent US20220177596A1 (Bristol-Myers Squibb, published 2022)
